Laboratory results from article PMC8062630, “Structure and assembly of double-headed Sendai virus nucleocapsids” (Communications Biology, 2021).

Assays:
[1] = target: the molecule itself; assay: cryo-EM structure; helical reconstruction of the helical stems of double-headed nucleocapsids (RELION 3.1); protein with bound host RNA in 20 mM Tris-HCl pH 7.4, 150 mM NaCl
[2] = target: the molecule itself; assay: electron microscopy of purified filaments; purified mutant nucleoproteins imaged by EM; whether negative stain or cryo-EM is not told in the text shown
[3] = target: the molecule itself; assay: cryo-EM imaging of filaments; nucleoprotein fractions from HEK293F lysate after two-step sucrose ultracentrifugation, put directly on cryo-EM grids

B1: Sendai virus nucleoprotein, wild type, uncleaved (NWT), assembled as nucleocapsid NCWT (natural protein)
chain: MAGLLSTFDTFSSRRSESINKSGGGAVIPGQRSTVSVFVLGPSVTDDADKLSIATTFLAHSLDTDKQHSQRGGFLVSLLAMAYSSPELYLTTNGVNADVKYVIYNIEKDPKRTKTDGFIVKTRDMEYERTTEWLFGPMVNKSPLFQGQRDAADPDTLLQIYGYPACLGAIIVQVWIVLVKAITSSAGLRKGFFNRLEAFRQDGTVKGALVFTGETVEGIGSVMRSQQSLVSLMVETLVTMNTARSDLTTLEKNIQIVGNYIRDAGLASFMNTIKYGVETKMAALTLSNLRPDINKLRSLIDTYLSKGPRAPFICILKDPVHGEFAPGNYPALWSYAMGVAVVQNKAMQQYVTGRTYLDMEMFLLGQAVAKDAESKISSALEDELGVTDTAKERLRHHLANLSGGDGAYHKPTGGGAIEVALDNADIDLEPEAHTDQDARGWGGDSGDRWARSMGSGHFITLHGAERLEEETNDEDVSDIERRIARRLAERRQEDATTHEDEGRNNGVDHDEEDDAAAAAGMGGI
notes: Sendai virus nucleoprotein (N), wild type, uncleaved; the N-tail is printed as 404-524; helical polymer, number of protomers not fixed; also called SeV nucleoprotein; SeV nucleocapsid; source: E. coli BL21 (DE3), purified (HisTrap HP, Superose 6 increase)
B1: binds [1].

B2: Sendai virus nucleoprotein loop mutant (residues 118 to 127 replaced with all alanine) (natural protein)
chain: MAGLLSTFDTFSSRRSESINKSGGGAVIPGQRSTVSVFVLGPSVTDDADKLSIATTFLAHSLDTDKQHSQRGGFLVSLLAMAYSSPELYLTTNGVNADVKYVIYNIEKDPKRTKTDGAAAAAAAAAAERTTEWLFGPMVNKSPLFQGQRDAADPDTLLQIYGYPACLGAIIVQVWIVLVKAITSSAGLRKGFFNRLEAFRQDGTVKGALVFTGETVEGIGSVMRSQQSLVSLMVETLVTMNTARSDLTTLEKNIQIVGNYIRDAGLASFMNTIKYGVETKMAALTLSNLRPDINKLRSLIDTYLSKGPRAPFICILKDPVHGEFAPGNYPALWSYAMGVAVVQNKAMQQYVTGRTYLDMEMFLLGQAVAKDAESKISSALEDELGVTDTAKERLRHHLANLSGGDGAYHKPTGGGAIEVALDNADIDLEPEAHTDQDARGWGGDSGDRWARSMGSGHFITLHGAERLEEETNDEDVSDIERRIARRLAERRQEDATTHEDEGRNNGVDHDEEDDAAAAAGMGGI
notes: Sendai virus nucleoprotein (N), derivative of NWT; also called Loop118–127 mutant; source: E. coli BL21 (DE3), purified (HisTrap HP, Superose 6 increase)
B2: binds [2].

B3: Sendai virus nucleoprotein NWT over-expressed in HEK293F cells (natural protein)
chain: MAGLLSTFDTFSSRRSESINKSGGGAVIPGQRSTVSVFVLGPSVTDDADKLSIATTFLAHSLDTDKQHSQRGGFLVSLLAMAYSSPELYLTTNGVNADVKYVIYNIEKDPKRTKTDGFIVKTRDMEYERTTEWLFGPMVNKSPLFQGQRDAADPDTLLQIYGYPACLGAIIVQVWIVLVKAITSSAGLRKGFFNRLEAFRQDGTVKGALVFTGETVEGIGSVMRSQQSLVSLMVETLVTMNTARSDLTTLEKNIQIVGNYIRDAGLASFMNTIKYGVETKMAALTLSNLRPDINKLRSLIDTYLSKGPRAPFICILKDPVHGEFAPGNYPALWSYAMGVAVVQNKAMQQYVTGRTYLDMEMFLLGQAVAKDAESKISSALEDELGVTDTAKERLRHHLANLSGGDGAYHKPTGGGAIEVALDNADIDLEPEAHTDQDARGWGGDSGDRWARSMGSGHFITLHGAERLEEETNDEDVSDIERRIARRLAERRQEDATTHEDEGRNNGVDHDEEDDAAAAAGMGGI
notes: Sendai virus nucleoprotein (N), wild type; Fractions were chosen by western blot against the 6xHis tag; also called NWT in pCAGGS; nucleoproteins isolated from HEK293F cells; source: HEK293F, transfected, isolated from lysate by two-step sucrose ultracentrifugation; not shown: His6, C-terminal, kept
B3: binds [3].
